In patent publication US20070269861A1:

Legend:
[1] = target: Crotalus durissus terrificus (C.d.t.) venom; assay: ELISA, venom-coated wells; dilution 1:62,500
[2] = target: Crotalus durissus terrificus (C.d.t.) venom; assay: ELISA, venom-coated wells (5 µg/ml); dilution 1:3125
[3] = target: Crotalus durissus terrificus (C.d.t.) venom; assay: ELISA, venom-coated wells; dilution 1:3125
[4] = target: Crotalus durissus terrificus (C.d.t.) venom; assay: ELISA, venom-coated wells; dilution 1:625
[5] = target: Crotalus durissus terrificus (C.d.t.) venom; assay: ELISA, venom-coated wells; dilution 1:25
[6] = target: Crotalus durissus terrificus (C.d.t.) venom; assay: ELISA, venom-coated wells; dilution 1:312,500
[7] = target: Crotalus durissus terrificus (C.d.t.) venom; assay: ELISA, venom-coated wells (5 µg/ml); dilution 1:625
[8] = target: Crotalus durissus terrificus (C.d.t.) venom; assay: ELISA, venom-coated wells; dilution 1:5
[9] = target: Crotalus durissus terrificus (C.d.t.) venom; assay: ELISA, venom-coated wells (5 µg/ml); undiluted
[10] = target: Crotalus durissus terrificus (C.d.t.) venom; assay: ELISA, venom-coated wells (5 µg/ml); dilution 1:5
[11] = target: Crotalus durissus terrificus (C.d.t.) venom; assay: ELISA, venom-coated wells; dilution 1:125
[12] = target: Crotalus durissus terrificus (C.d.t.) venom; assay: ELISA, venom-coated wells (5 µg/ml); dilution 1:25
[13] = target: Crotalus durissus terrificus (C.d.t.) venom; assay: ELISA, venom-coated wells (5 µg/ml); dilution 1:125

preimmune IgY (PEG preparation from eggs of unimmunized hens) (antibody)
absorbance 412 nm [1]: 0.001 absorbance
absorbance 412 nm [2]: 0.002 absorbance
absorbance 412 nm [3]: < 0 absorbance
absorbance 412 nm [4]: < 0 absorbance
absorbance 412 nm [5]: 0.016 absorbance
absorbance 412 nm [6]: 0.01 absorbance
absorbance 412 nm [7]: 0 absorbance
absorbance 412 nm [8]: < 0 absorbance
absorbance 412 nm [9]: 0.003 absorbance
absorbance 412 nm [10]: < 0 absorbance
absorbance 412 nm [11]: < 0 absorbance
absorbance 412 nm [12]: 0 absorbance
absorbance 412 nm [13]: 0.003 absorbance
